Test results taken from patent US20240398911A1.

Tests used:
[1] = target: myc-tagged full-length S of SARS-CoV-2 variant P.1 (Gamma) expressed on Expi293F cells (SARS-CoV-2 P.1 (Gamma))
[2] = target: myc-tagged full-length S of SARS-CoV-2 variant B.1.351 (Beta) expressed on Expi293F cells (SARS-CoV-2 B.1.351 (Beta))
[3] = target: myc-tagged full-length S of SARS-CoV-2 variant B.1.1.7 (Alpha) expressed on Expi293F cells (SARS-CoV-2 B.1.1.7 (Alpha))

Substance | EC50 (read off the curve) [1] [nM] | EC50 (read off the curve) [2] [nM] | EC50 (read off the curve) [3] [nM]
REGN10987 (imdevimab) (antibody) | 0.2 | 0.3 | –
sACE22.v2.4 fused to human IgG1 Fc (Fc fusion) | 0.8 | – | 0.7
